Assay results: the nanobody polyreactivity screen of Harvey et al. (2022)

Assay: yeast display, Sf9 membrane polyspecificity reagent, FACS + sequencing; frameworks hold sequencing errors
Summary of the method: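 A nanobody's polyreactivity label depends on the gate it was sorted from. Yeast display cells were stained with 10% biotinylated, detergent-solubilized Sf9 membrane reagent for 1 hour at 4 °C, enriched on streptavidin microbeads and sorted by FACS. The low and high (top ~1%) gates were set on anti-HA fluorescence for expression and streptavidin fluorescence for reagent binding.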

QVQLVESGGGLVQAGGSLRLSCAASGFTIGYYAMGWYRQAPGKERELVAAISWSGGRTYYAYSVKGRFTISRDNAKNTVYLQMNSLKPEDTAVYYCAADGQQTYSGYDYWGQGTQVTVSS
polyreactivity (PSR sort gate): high polyreactivity

QVQLVESGGGLVQAGASLRLSCAASGSIIDDYAMGWYRQAPGKERELVAAITYSGGTTYYADSVKGRFTISRDNAKNTVYLQLNSLKREDTAVYYCAAEWRVYYATYGYWGQGTQVTVSS
polyreactivity (PSR sort gate): high polyreactivity

QVQLVESGGVLVQAGGSLRLSCAASGGIFNQYAMGWYRQAPGKERELVAAISSSGSSTYYADSVKGRFTISRDNAKNTVYLLMNSLKPEDTAVYYCNTYYSYQRVGYWGQGTQVTVSS
polyreactivity (PSR sort gate): high polyreactivity

QVQLVESGGGIVQAGGRLRLSCAASGFPSTLMLWDGIDRRLGKKGSWLPIISYNGGSTYYADSVKGRFTISRDNANNTVYLQMNSLKPVDTAVYYCYTAVGEYESDYWGQGTQVTVSS
polyreactivity (PSR sort gate): low polyreactivity

QVQLLESGGGLVQAGGSLRLSCAASGITFLLNAMGWYRQAPGKERELVAAISRSGGRTYYADSVKGRFTISRDNAKNTVYLQMNSLKPEDTAVYYCAVVTQFGDGYYWGQGTQVTVSS
polyreactivity (PSR sort gate): high polyreactivity

QVQHVESGVGLVQAGGSLRLSCASSGLTFQYYSMGWYRQAPGKERELVAAISRRGGSTYYADSVKGRFTISRDNAKNTVYLQMNSLKPEDTAVYYCARYSYRGTNVRYDYWGQGTQVTVSS
polyreactivity (PSR sort gate): high polyreactivity

QVQLVESGGGLVQAGGSLRLSCADSGFIFSHNVMGWYRQAPGKERELVAAISASGGSTYYADSVKGRFTISRDNAKNTVYLQMNSLKPEDTAVYYCAKVTWGTVWYRSPSEYDYWGQGTQVTVSS
polyreactivity (PSR sort gate): low polyreactivity

QVQLVESGGGLVQAGGSLRLSCAASGSTFRYYVMGWYRQAPGKERELVAAISAGGGRTYYADSVKGRFTISRDNSKNTVYLQMNSLKPEDTAVYYCAAKSVTPYWQEYEYDYWGQGTQVTVSS
polyreactivity (PSR sort gate): high polyreactivity

QVQLVESGGGLVQAGGSLRLSCAASGSIFSENAMGWYRQAPGKERELVAAITGGASTNYADSVKGRFTISRDNAKNTVYLQMNSLKPEDNAVYYCNTGGPRGTTYDYWGQGTQVTVSS
polyreactivity (PSR sort gate): low polyreactivity

QVQLVDSGGGLVQAGGSLRLSCAPSGTTYPGYAMGWYRQAPGKERELFAAIDRGGSTSYADSVKGRFTISRDNAKITVYLQMNSLKPEDTAFYYCAAEASVVHKSSDYDSWGQCTQVTVSS
polyreactivity (PSR sort gate): low polyreactivity

QVQLVESGGGLVQAGGSLRLSCAASGFIFVFYDMGWYRQAPGKERELVAGITRNDGSTYYADSVKGRFKISRDNAKNTVYLLMNSLKPEDTAVYYCAADRVRRNDKLAYDYWGQGTQVTVSS
polyreactivity (PSR sort gate): low polyreactivity

QVQLVESGGGLVQAGGSLRLSCAASGSTSDINAMGWYRQAPGKERELVAAISSSGGRTYYADSVKGRFTISRDNAKNTVYLQMNSLKPEDTAVYYCAADTYTSAQHEKYDYWGQGTQVTVSS
polyreactivity (PSR sort gate): low polyreactivity

QVELVYSGGGLVQAGGSLRLSCPASGSTFWYYAMGWSRQPPGKERELVAAINSGGSTFYADSVKGRFTISRDNAKNTVYLQMNSLKPEDTAVYYCAKRSYDYRRYYWGQGTQVTVSS
polyreactivity (PSR sort gate): high polyreactivity

QVQLVESGGGLVQAGGSLRLSCAASGRIFSPNAMGWYRQAPGKERELVAAISWRGRTYYADSVKGRFTISRDNAKNTVYLQMNSLKPEDTAVYYCNAPYKYVRGDYWGQGTQVTVSS
polyreactivity (PSR sort gate): high polyreactivity

QVQLVESGGGLVQAGRSLRLSCAASGFIFKSYAMGWYRQAPAKERELVAAISFSGGSTYYADSVKGLFTISRDNAKNTVYLQMNSLKPEDSAVYYCAADPRNGEYYYWGQGTQVTVSS
polyreactivity (PSR sort gate): high polyreactivity

QVQLVESGGGLVQAGGSLRLSCAASGFTFRYYAMGWYRQAPGKERELVATIRTSGGSTYYADSVKGRFTISRDNAKNTVYLQMNSLKPEDTAVYYCAVRGRNWQHTRFNYWGQGTQVTVSS
polyreactivity (PSR sort gate): high polyreactivity

QVQLVESGGGLVQAGGSLRLSCAASGSTFATYAMGWYRQAPGKERELVAAISKSGGSTYYADSVKGRFTISRDNAKNTVYLQMNSLKPEDTAVYYCAAVGPYRWYDYWGQGTQVTVSS
polyreactivity (PSR sort gate): high polyreactivity

QVQLVESGGGLVQAGGSLRLSCAASARTYGANAMGRYRQAPGKERELVAAISYHGTRTYYADSVKGRFTISRDNAKNTVYLQMNSLKPEDTAVYYCAAVCKPGVYQEGDEWGQGTQVTVSS
polyreactivity (PSR sort gate): high polyreactivity

QVQLVESGGGLVQAGGSLRLSCAACGFTFRYNAMGWYRQAPGKERELVAAITRGGGNTYYADSVKGRFTISRDHAKNTVYLQMNSLKPEDTAVYYCAAYSNGGRYDYGYWGQGTQVTVSS
polyreactivity (PSR sort gate): high polyreactivity

QVQLVESGGGLVQAGGSHRLSCAASGRIFVGYTMGWYRQAPGKERELVAAITSGGSTYYADSVKGRFTISRDNAKNTVYLQMNSLNPEDTAVYYCNAAYQFDSYHLGGYGYEYWGQGTQVTVSS
polyreactivity (PSR sort gate): low polyreactivity

QVQLVESGGGLVQAGGSLRLSCAASGGTFFKNAMGWYRQAPGKERELVAVIDTISTSTYYADSVKGRFTISRDNAKNTVYLQMNSLKPEDTAVYYCAAEYGPGLTEGLYYYWGQGTQVTVSS
polyreactivity (PSR sort gate): high polyreactivity

QVQLVESGGGLVQAGGSLRLSCAASGRTFVPNTMGWYRQAPGKERELVAAIRWSVGSTYYADSVKGRFTISRDNAKNTVYLQMNSLKPEDTAVYYCAAYYSRSYLRYGMDYWGQGTQVTVSS
polyreactivity (PSR sort gate): high polyreactivity

QVHLVESGGGLVQAGGSLRLSCDASGSIIDGYGMGWYRQAPGKERELVASITWNDGSTYYADSVKGRFTISRDNAKNTVYLQMNSLKPEDTAVYYCAADQWGYEYDYWGQGTQVTVSS
polyreactivity (PSR sort gate): low polyreactivity

QVQLVESVGGLVQAGGSLRLSCAASGLIFLVNAMGWYRQAPGKERELVAAIDRDGGITYADSVKGRFTISRDNAKNTVYLQLNSLKPEDTAVYYCAADPSSYGRFTYDYWGQGTQVTVSS
polyreactivity (PSR sort gate): low polyreactivity

QVQLVESGGGLVQAGGSLRLSCAASGRIFRYYAMGWYRQAPGKERELVAAISVSGGSTYYADSVKGRFTISRDNAKNTVYLKMNSLKPEDTAVYYCAARIKTYSKRYYWGQATQVTVSS
polyreactivity (PSR sort gate): high polyreactivity

QVQLVESGGGLVQAGGSLRLSCAASGIIFGHYAMGWYRQAPGKERELVARITYSGTRTYYADSVKGRFTISRDNAKNTVYLQMNSLKPEDTAVYYCAAGYAYPRWVTAGNYWGQGTQVTVSS
polyreactivity (PSR sort gate): high polyreactivity

QVQLEESGGGVVQAGGSLRLSCAASGRIFDRYDMARYRQAPGKERELVASISSGGSTYYADSVKGRFTISRVTAKNPVYLQMNSLKPEDTAVYYCNAEARSRRYRYDYWGQGTQVTVSS
polyreactivity (PSR sort gate): high polyreactivity

QVQLVESGGGLVQAGGSLRLSCAASGIIFWAYALGWYRQAPGKERELVAVISRGGSTNYADSVKGPFTISRDNAKNTVYLQMNSLKPEDTAVYYCAARYGWGQGTQVTVSS
polyreactivity (PSR sort gate): high polyreactivity

QVQLVESGGGLVQAGGSLRLSCAASGRTFWVNTMGWYRQAPGKERELVAGITRSGTRTYYADSVKGRFTISRDNAKNTVYLQMNSLKPEDTAVYYCATGPWRYRYDYWGQGTQVTVSS
polyreactivity (PSR sort gate): low polyreactivity

QVQLVESRGRLVQAGGTLRLSCAASGNITSVYAMGWYRQAPGNERELVAAISGSGGSTYYADSVKGRFTISRDNAMNTVYLQMNSLKPEDTAVYYCAKGFQYQGNSYGYWGQGSQVTVSS
polyreactivity (PSR sort gate): low polyreactivity

QVQLVESGGGLVQAGGSLRLSCAASGFTFKHYAMGWYRQAPGKEREFVAAITGSGGSTYYADSVKGRFTISRDNAKITVYLEMNSLKPEDTAVYYCAASDVSRYRPYRRFDYWGQGTQVTVSS
polyreactivity (PSR sort gate): high polyreactivity

QVQLVESGGGLVQAGGSLRLSCAASGNIFTPYTMGWYRQAPGKERELVASINNAGTTKYADSVKGRFTISRDNAKNTVYLQMNSLKPEDTAVYFCAAQRRHALSSYPKHYYWGQGTQVTVSS
polyreactivity (PSR sort gate): low polyreactivity

QVQLVESGGGLVQAGGSLRLSCAASGFNYRYYAMGWYRQAPGKERELVAAIDYSGGSTNYADSVKGRFTISRDNAKNTVYLQMNSLNPEDTAVYYCNAEYTWHRGYDYWGQGTQVTVSS
polyreactivity (PSR sort gate): low polyreactivity

QDQLVESGGGLVQAGGSLRLSCSASGSIVGLYAMGWYRQAPGKERELVAAITASDGYTYYADSVKGRFTNSRDNAKNTVYLQMNSLKPEDTAVYYCNADAYSGYFLFDYWGQGTQVNVSS
polyreactivity (PSR sort gate): low polyreactivity

QVQLVESGGGLVQAGGSLRLSCAASGRTFGPYARGWYIQAPGKERELVAAISWIGTSTYYADSVKGRFTISRDNAKNTVYLQMNSLKPEDTAVYYCAALEKNYTTKFYYWGQVTQVTVSS
polyreactivity (PSR sort gate): high polyreactivity

QVQLVESGGGLVQAGGSLRLSCAASGLTFTYYAMGWYRQAPGKERELVAAITYSGDSKYYADSVKGLFTISRDNAKNTVYLQMNSLKPEDTAVYYCNAEQYLYYILGNYDYWGQGTQVTVSS
polyreactivity (PSR sort gate): low polyreactivity

QVQLVESGGGLVQERGSLRLSCAASGSIFIPYARGWYRQAPGKERELVAAISLGDGKTYYADSVKGRFTISRDNAKNTVYLQMNSLKPEDTAVYYCNAVPRKFGDEYWGQGTQVTVSS
polyreactivity (PSR sort gate): low polyreactivity

QVQLVESGGGLVQAGGSLRLSCAASGSTFYIYAMGWYRQAPGKERELVAVITRRGGSTSYADSVKGRFTISRDNAKNTVYLQMNSLKPEDTAVYYCAAKRTWPDVKYIRYGYWGQGAQVTVSS
polyreactivity (PSR sort gate): high polyreactivity

QVQLVESGGGLVQAGGSLRLSCAASGITFYYNAMGWYRQAPGKERELVAAIRSAGSTYYADSVKGRFTISRDNAKNTVYLQMNSLKPEDTAVYYCAAEDGTTDQVRVYWIMDYWGQGTQVTVSS
polyreactivity (PSR sort gate): low polyreactivity

QVQLVESGGGLVQGGGSLRLSCAASGFTFVYYAMGWDRQAPGKERELVAAISRSGGSTYYADSVKGRFTISRDNAKNTFYLQMNSLKPEDTAVYYCAARKNYGSRLSYEYWGQGTQVSVSS
polyreactivity (PSR sort gate): high polyreactivity

QVQLVESGGGLVQAGGSLRLSCAASGITFGGYAMGWYRQAPGKERELVASIRSGSTTNYADSVKGRFTISRDNAKNTVYLQMNSLKPEDTAVYYCAARNFRNRYGYWGQGTQVTVSS
polyreactivity (PSR sort gate): high polyreactivity

QVQLVESGGGLVQAGGSLRLSCAASGRIFFTNAMGWYRQAPGKERELVATISSSDGSTYYADSVTGRFTISRDNAKNTVYLQMNSLKPEDTAVYYCAARYRSTFYNTYDRVYWGQGTQVTVSS
polyreactivity (PSR sort gate): high polyreactivity

QVQLVESGGRLVQAGGSLRLSCAASGSIFYRYAMGWYRQAPGQERELVATINSDGGDTYYADSVKGRFTISRDNAKNTVSLQMNSLKPEDTAVYYSAKGYYVLYRAWYDSYDYWGQGTQVTVSS
polyreactivity (PSR sort gate): low polyreactivity
